Biological target: the molecule itself
Experiment: SDS-PAGE

| Protein | stoichiometry N | binding result |
| --- | --- | --- |
| Mycobacterium tuberculosis CrgA (Rv0011c), wild type, full length, with C-terminal His tag (natural protein) MMPKSKVRKKNDFTVSAVSRTPMKVKVGPSSVWFVSLFIGLMLIGLIWLMVFQLAAIGSQAPTALNWMAQLGPWNYAIAFAFMITGLLLTMRWH | 2 |  |
| CrgA A78V mutant (natural protein) MMPKSKVRKKNDFTVSAVSRTPMKVKVGPSSVWFVSLFIGLMLIGLIWLMVFQLAAIGSQAPTALNWMAQLGPWNYAIVFAFMITGLLLTMRWH |  | binds |
| CrgA N74A mutant (natural protein) MMPKSKVRKKNDFTVSAVSRTPMKVKVGPSSVWFVSLFIGLMLIGLIWLMVFQLAAIGSQAPTALNWMAQLGPWAYAIAFAFMITGLLLTMRWH |  | binds |
| CrgA G44V mutant (natural protein) MMPKSKVRKKNDFTVSAVSRTPMKVKVGPSSVWFVSLFIGLMLIVLIWLMVFQLAAIGSQAPTALNWMAQLGPWNYAIAFAFMITGLLLTMRWH |  | binds |
| CrgA G39V mutant (natural protein) MMPKSKVRKKNDFTVSAVSRTPMKVKVGPSSVWFVSLFIVLMLIGLIWLMVFQLAAIGSQAPTALNWMAQLGPWNYAIAFAFMITGLLLTMRWH |  | binds |

From PMC11643046 (bioRxiv, 2025)
